Data from paper PMC12582974, “Characterization of WAC interactions with R2TP and TTT chaperone complexes linking glucose and glutamine availability to mTORC1 activity” (FEBS Open Bio, 2025).

Key:
[1] = target: mTOR-mLST8 complex (10xHis-TEV-mTOR with untagged mLST8) (human, UniProt P42345 1-2549; Q9BVC4 1-326); experiment: pull-down; WAC-3xFlag from Expi293 lysate purified and held on anti-Flag resin (washes incl. 5 mM ATP/5 mM MgCl2); purified prey added 20 min at 4 °C in 150 mM Tris pH 8, 300 mM KCl, 10% glycerol, 0.5 mM TCEP; elution with 3xFlag peptide; SDS/PAGE and western blot; settings: both partners purified
[2] = target: T1, RUVBL1-RUVBL2 complex (human, UniProt Q9Y265 1-456; Q9Y230 1-463); experiment: as above; settings: both partners purified
T1 construct: RUVBL1 (RuvB-like 1), human, N-terminal His-tag and TEV site; RUVBL2 (RuvB-like 2), human, untagged; also called RUVBL1‐RUVBL2 module; RUVBL1‐RUVBL2 ATPase module; source: E. coli BL21 (DE3), co-expressed, purified (HisTrap HP; an untagged form by TEV digestion and a second HisTrap step)
T1 sequence (Q9Y265 whole entry, chain 1 of 2): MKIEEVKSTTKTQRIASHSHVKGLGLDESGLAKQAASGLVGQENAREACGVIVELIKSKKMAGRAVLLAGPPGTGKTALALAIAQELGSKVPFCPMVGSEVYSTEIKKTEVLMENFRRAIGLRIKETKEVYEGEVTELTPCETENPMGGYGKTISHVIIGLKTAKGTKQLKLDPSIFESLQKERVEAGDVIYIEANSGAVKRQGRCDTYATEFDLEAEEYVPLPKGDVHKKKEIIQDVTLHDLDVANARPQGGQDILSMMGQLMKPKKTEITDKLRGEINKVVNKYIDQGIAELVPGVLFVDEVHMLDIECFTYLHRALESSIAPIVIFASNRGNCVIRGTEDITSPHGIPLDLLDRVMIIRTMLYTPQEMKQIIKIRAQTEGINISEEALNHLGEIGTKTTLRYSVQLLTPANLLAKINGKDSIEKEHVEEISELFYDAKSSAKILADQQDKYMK
T1 sequence (Q9Y230 whole entry, chain 2 of 2): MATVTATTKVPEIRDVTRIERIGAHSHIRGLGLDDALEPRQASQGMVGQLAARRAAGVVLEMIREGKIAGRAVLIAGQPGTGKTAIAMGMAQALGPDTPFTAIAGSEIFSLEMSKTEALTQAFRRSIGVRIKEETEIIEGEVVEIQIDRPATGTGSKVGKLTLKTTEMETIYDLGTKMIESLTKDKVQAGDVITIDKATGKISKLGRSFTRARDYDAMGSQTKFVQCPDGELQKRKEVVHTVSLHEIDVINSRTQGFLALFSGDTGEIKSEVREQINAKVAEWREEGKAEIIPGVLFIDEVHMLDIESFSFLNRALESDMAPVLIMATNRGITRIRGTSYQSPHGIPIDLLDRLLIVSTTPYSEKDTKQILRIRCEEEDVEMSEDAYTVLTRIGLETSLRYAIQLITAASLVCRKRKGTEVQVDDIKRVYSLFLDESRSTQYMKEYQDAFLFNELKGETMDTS

binding result [1]: binds
binding result [2]: binds
B1: WAC-3xFlag (human WAC with C-terminal 3xFlag tag, pACEMam-WAC-3C-3xFlag) (natural protein, UniProt Q9BTA9-1 1-647, looked up)
chain: MVMYARKQQRLSDGCHDRRGDSQPYQALKYSSKSHPSSGDHRHEKMRDAGDPSPPNKMLRRSDSPENKYSDSTGHSKAKNVHTHRVRERDGGTSYSPQENSHNHSALHSSNSHSSNPSNNPSKTSDAPYDSADDWSEHISSSGKKYYYNCRTEVSQWEKPKEWLEREQRQKEANKMAVNSFPKDRDYRREVMQATATSGFASGMEDKHSSDASSLLPQNILSQTSRHNDRDYRLPRAETHSSSTPVQHPIKPVVHPTATPSTVPSSPFTLQSDHQPKKSFDANGASTLSKLPTPTSSVPAQKTERKESTSGDKPVSHSCTTPSTSSASGLNPTSAPPTSASAVPVSPVPQSPIPPLLQDPNLLRQLLPALQATLQLNNSNVDISKINEVLTAAVTQASLQSIIHKFLTAGPSAFNITSLISQAAQLSTQAQPSNQSPMSLTSDASSPRSYVSPRISTPQTNTVPIKPLISTPPVSSQPKVSTPVVKQGPVSQSATQQPVTADKQQGHEPVSPRSLQRSSSQRSPSPGPNHTSNSSNASNATVVPQNSSARSTCSLTPALAAHFSENLIKHVQGWPADHAEKQASRLREEAHNMGTIHMSEICTELKNLRSLVRVCEIQATLREQRILFLRQQIKELEKLKNQNSFMV
notes: WAC (WW domain-containing adaptor with coiled-coil), human, cDNA NM_016628.5 from GenScript (clone OHu28471); An HRV 3C protease site stands between WAC and the 3xFlag tag; also called WW domain-containing adaptor with coiled-coil; WAC lysate; source: Expi293 cells, overexpressed; purified on anti-Flag resin and kept on the beads; not shown: 3xFlag, C-terminal, kept
